One molecule from patent US20110257086A1 (Johns Hopkins, published 2011) can be followed below.

Assay in all cases: cell-based or functional assay
Assay [1] has as its target T1, ghrelin O-acyltransferase (GOAT) endogenous in human cell lines (HEL, Kato III, AGS) (human, UniProt Q96T53 1-435).
T1 sequence: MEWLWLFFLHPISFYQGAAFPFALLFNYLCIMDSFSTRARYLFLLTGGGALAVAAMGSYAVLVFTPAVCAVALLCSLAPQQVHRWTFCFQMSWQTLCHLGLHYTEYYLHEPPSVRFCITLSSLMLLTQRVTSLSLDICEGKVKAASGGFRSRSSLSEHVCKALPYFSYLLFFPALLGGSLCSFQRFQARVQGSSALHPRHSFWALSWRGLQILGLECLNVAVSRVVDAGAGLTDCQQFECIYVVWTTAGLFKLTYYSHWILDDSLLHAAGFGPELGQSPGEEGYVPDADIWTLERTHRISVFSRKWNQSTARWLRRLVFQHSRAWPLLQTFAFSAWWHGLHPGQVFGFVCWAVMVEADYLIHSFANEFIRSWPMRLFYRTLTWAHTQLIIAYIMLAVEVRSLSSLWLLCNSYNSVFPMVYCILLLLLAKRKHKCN

In the next assay the target is p300 HAT.
For the next assay, the target named is PCAF HAT.
Assay [2] addresses serotonin N-acetyltransferase.

B1: GO-CoA-Tat (Compound 1 of FIG. 1C), bisubstrate analog inhibitor of ghrelin O-acyltransferase (peptide)
peptide: GSSFLSPEHQYGRKKRRQRRR
modifications: Ser3 of ghrelin replaced with 1,2-diaminopropionic acid (Dap), whose side-chain amine carries an octanoyl group conjugated at its alpha carbon to coenzyme A; amino-hexanoyl (Ahx) linker between ghrelin residue 10 and the Tat peptide
B1: the “IC50 of reduction of acyl-ghrelin levels in cell lysates (HEL, Kato III, AGS cells)” value in assay [1] lay within 1000 to 2000 nM. The “inhibition of acetyltransferase activity at 10 µM GO-CoA-Tat (alpha-KGDH coupled spectrophotometric assay)” value (with p300 HAT; with PCAF HAT; in assay [2]) was below 15 % inhibition in each case.
